The values below come from article PMC11402598.

Where “and” joins values, the source holds several entries; their conditions need not be identical. Equal values may be shown once.

The target in one test is Fc of human IgG1 (human). Description: cryo-EM structure; pre-SEC O432-17-Fc sample, 0.5 mg/ml in 25 mM Tris pH 8.0, 150 mM NaCl; octahedral symmetry applied; design model refined into the map.
The target in test [1] is O432-17(–) nanoparticle assembled with Fc (human). The experiment in a line: SEC; in vitro packaging: 1x tetramer, 1x Fc, 1.1x negatively charged trimeric plug, 1x pos36GFP, dialysed 16 h at 25 °C into 25 mM Tris pH 8.0, 200 mM NaCl; Superose 6 10/300 GL; absorbance at 280 and 488 nm. Background: SEC sorts molecules by how far they enter the pores of the column.

Broadly, the stoichiometry N is a count of units in the complex or per binding partner. Regarding Fc of human IgG1 (domain or fragment), the stoichiometry N with Fc of human IgG1 (human) is 2.

For positively charged GFP (pos36GFP), the stoichiometry N (pos36GFP per nanoparticle) in test [1] was 9 and 10.
